# Values quoted from earlier work as cited in publication PMC3433420.
# Where two headings read alike, the source gives them in different places.
# What was measured:
# Conditions in all cases: cited from earlier work
# SOCS2 (Homo sapiens) = SOCS2 (Homo sapiens) (UniProt O14508)
# RASA1-N (Homo sapiens) [1] = molecular target: RASA1-N (Homo sapiens) (UniProt P20936)
# SYK-NC (Homo sapiens) = SYK-NC (Homo sapiens) (UniProt P43405)
# PIK3R1-N (Homo sapiens) = PIK3R1-N (Homo sapiens) (UniProt P27986)
# PIK3R1-N (Homo sapiens), sequence (P27986 328-723): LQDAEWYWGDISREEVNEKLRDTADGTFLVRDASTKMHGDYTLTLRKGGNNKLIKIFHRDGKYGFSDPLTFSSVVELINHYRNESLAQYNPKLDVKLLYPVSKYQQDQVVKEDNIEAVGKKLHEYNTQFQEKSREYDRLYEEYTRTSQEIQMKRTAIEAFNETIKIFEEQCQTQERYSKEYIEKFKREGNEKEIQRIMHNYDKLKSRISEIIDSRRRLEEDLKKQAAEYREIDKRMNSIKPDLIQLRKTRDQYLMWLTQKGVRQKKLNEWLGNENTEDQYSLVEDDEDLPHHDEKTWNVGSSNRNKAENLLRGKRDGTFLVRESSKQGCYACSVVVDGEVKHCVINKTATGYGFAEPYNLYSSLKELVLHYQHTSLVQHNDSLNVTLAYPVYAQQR
# RASA1-N (Homo sapiens) [2] = molecular target: RASA1-N (Homo sapiens) (UniProt P20936); remark: listed apart in the source
# RASA1-N (Homo sapiens), sequence (P20936 176-446): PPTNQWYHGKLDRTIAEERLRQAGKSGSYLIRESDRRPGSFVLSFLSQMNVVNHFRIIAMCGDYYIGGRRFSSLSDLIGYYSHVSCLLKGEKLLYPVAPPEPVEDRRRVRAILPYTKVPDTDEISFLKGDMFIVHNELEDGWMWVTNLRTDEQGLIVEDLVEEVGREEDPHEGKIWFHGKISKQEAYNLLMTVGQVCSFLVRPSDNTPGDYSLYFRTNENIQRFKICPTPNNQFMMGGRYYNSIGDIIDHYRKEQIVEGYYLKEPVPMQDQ
# SOCS2 (Homo sapiens), sequence (O14508 43-161): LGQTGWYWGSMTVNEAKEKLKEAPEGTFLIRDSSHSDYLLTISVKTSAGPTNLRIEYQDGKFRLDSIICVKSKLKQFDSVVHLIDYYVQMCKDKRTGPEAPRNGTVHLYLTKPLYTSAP
substance,measurement,setting,value
…pYLVPQQGF,apparent Kd (screen),SOCS2 (Homo sapiens),2000 nM
same,apparent Kd (screen),RASA1-N (Homo sapiens) [1],2000 nM
…pYLIPQQGFd,apparent Kd (screen),SYK-NC (Homo sapiens),534 nM
…pYEEMRAFQ,apparent Kd (screen),PIK3R1-N (Homo sapiens),210 nM
same,apparent Kd (screen),RASA1-N (Homo sapiens) [2],1350 nM
